Measurements: the supplement of paper PMC5998384

Columns and labels:
[1] = test system: HeLa Kyoto; assay: solubility in G1/S (NP-40 vs SDS abundance) (log2 ratio); higher = more soluble; conditions: cell cycle stage: G1/S
[2] = test system: HeLa Kyoto; assay: melting temperature (median over replicates), in situ; higher = more thermally stable
[3] = test system: HeLa Kyoto; assay: solubility change mitosis vs G1/S (difference of NP-40 vs SDS log2 ratios) (log2 ratio difference); higher = more soluble in mitosis
[4] = test system: HeLa Kyoto; assay: thermal stability score vs G1/S (z-score of summed log2 fold changes over temperatures); higher = more thermally stable than in G1/S
[5] = cell cycle stage: early G1 (4.5 h after nocodazole release)
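For melting temperature (median over replicates), in situ in this document: HeLa Kyoto cells synchronized by double thymidine or nocodazole block, proteins quantified by TMT10plex mass spectrometry, three independent biological replicates.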
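For solubility change mitosis vs G1/S (difference of NP-40 vs SDS log2 ratios) in this document: synchronized HeLa Kyoto cells (double thymidine block for G1/S, nocodazole release for mitosis), protein amounts in NP-40 versus SDS lysates quantified by mass spectrometry, three biological replicates.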
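For solubility in G1/S (NP-40 vs SDS abundance) in this document: HeLa Kyoto cells arrested at G1/S by double thymidine block, proteins quantified by TMT10plex mass spectrometry in mild NP-40 versus SDS extracts, three biological replicates.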
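For thermal stability score vs G1/S (z-score of summed log2 fold changes over temperatures) in this document: synchronized HeLa Kyoto cells, proteins quantified by TMT10plex mass spectrometry, three biological replicates, mitosis taken 0.5 h after nocodazole release, G1/S directly after double thymidine block.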

Sequence	solubility in G1/S (log2) [1]	melting temperature ([2]; cell cycle stage: G1/S) [°C]	melting temperature ([2]; cell cycle stage: mitosis) [°C]	solubility change mitosis (log2) [3]	thermal stability score [4, 5]	thermal stability score ([4]; cell cycle stage: mitosis)
MALLSTVRGATWGRLVTRHFSHAARHGERPGGEELSRLLLDDLVPTSRLELLFGMTPCLLALQAARRSVARLLLQAGKAGLQGKRAELLRMAEARDIPVLRPRRQKLDTMCRYQVHQGVCMEVSPLRPRPWREAGEASPGDDPQQLWLVLDGIQDPRNFGAVLRSAHFLGVDKVITSRRNSCPLTPVVSKSSAGAMEVMDVFSTDDLTGFLQTKAQQGWLVAGTVGCPSTEDPQSSEIPIMSCLEFLWERPTLLVLGNEGSGLSQEVQASCQLLLTILPRRQLPPGLESLNVSVAAGILLHSICSQRKGFPTEGERRQLLQDPQEPSARSEGLSMAQHPGLSSGPEKERQNEG [MRM1]	-0.178	53.3	51.7	0.0939	-1.62	-1.81
MALLVRVLRNQTSISQWVPVCSRLIPVSPTQGQGDRALSRTSQWPQMSQSRACGGSEQIPGIDIQLNRKYHTTRKLSTTKDSPQPVEEKVGAFTKIIEAMGFTGPLKYSKWKIKIAALRMYTSCVEKTDFEEFFLRCQMPDTFNSWFLITLLHVWMCLVRMKQEGRSGKYMCRIIVHFMWEDVQQRGRVMGVNPYILKKNMILMTNHFYAAILGYDEGILSDDHGLAAALWRTFFNRKCEDPRHLELLVEYVRKQIQYLDSMNGEDLLLTGEVSWRPLVEKNPQSILKPHSPTYNDEGL [UQCC1]	-0.367	54.2	54.1	-0.25	0.338	-0.909
MALPFRKDLEKYKDLDEDELLGNLSETELKQLETVLDDLDPENALLPAGFRQKNQTSKSTTGPFDREHLLSYLEKEALEHKDREDYVPYTGEKKGKIFIPKQKPVQTFTEEKVSLDPELEEALTSASDTELCDLAAILGMHNLITNTKFCNIMGSSNGVDQEHFSNVVKGEKILPVFDEPPNPTNVEESLKRTKENDAHLVEVNLNNIKNIPIPTLKDFAKALETNTHVKCFSLAATRSNDPVATAFAEMLKVNKTLKSLNVESNFITGVGILALIDALRDNETLAELKIDNQRQQLGTAVELEMAKMLEENTNILKFGYQFTQQGPRTRAANAITKNNDLVRKRRVEGDHQ [TMOD3]	0.293	49.4	50.5	0.296	-0.553	0.573
MALQLGRLSSGPCWLVARGGCGGPRAWSQCGGGGLRAWSQRSAAGRVCRPPGPAGTEQSRGLGHGSTSRGGPWVGTGLAAALAGLVGLATAAFGHVQRAEMLPKTSGTRATSLGRPEEEEDELAHRCSSFMAPPVTDLGELRRRPGDMKTKMELLILETQAQVCQALAQVDGGANFSVDRWERKEGGGGISCVLQDGCVFEKAGVSISVVHGNLSEEAAKQMRSRGKVLKTKDGKLPFCAMGVSSVIHPKNPHAPTIHFNYRYFEVEEADGNKQWWFGGGCDLTPTYLNQEDAVHFHRTLKEACDQHGPDLYPKFKKWCDDYFFIAHRGERRGIGGIFFDDLDSPSKEEVFRFVQSCARAVVPSYIPLVKKHCDDSFTPQEKLWQQLRRGRYVEFNLLYDRGTKFGLFTPGSRIESILMSLPLTARWEYMHSPSENSKEAEILEVLRHPRDWVR [CPOX]	0.131	55	55	-0.135	-0.749	-1.47
MALRVVRSVRALLCTLRAVPSPAAPCPPRPWQLGVGAVRTLRTGPALLSVRKFTEKHEWVTTENGIGTVGISNFAQEALGDVVYCSLPEVGTKLNKQDEFGALESVKAASELYSPLSGEVTEINEALAENPGLVNKSCYEDGWLIKMTLSNPSELDELMSEEAYEKYIKSIEE [GCSH]	0.297	60	56.8	-0.0756	-1.2	-1.7
MALTSFLPAPTQLSQDQLEAEEKARSQRSRQTSLVSSRREPPPYGYRKGWIPRLLEDFGDGGAFPEIHVAQYPLDMGRKKKMSNALAIQVDSEGKIKYDAIARQGQSKDKVIYSKYTDLVPKEVMNADDPDLQRPDEEAIKEITEKTRVALEKSVSQKVAAAMPVRAADKLAPAQYIRYTPSQQGVAFNSGAKQRVIRMVEMQKDPMEPPRFKINKKIPRGPPSPPAPVMHSPSRKMTVKEQQEWKIPPCISNWKNAKGYTIPLDKRLAADGRGLQTVHINENFAKLAEALYIADRKAREAVEMRAQVERKMAQKEKEKHEEKLREMAQKARERRAGIKTHVEKEDGEARERDEIRHDRRKERQHDRNLSRAAPDKRSKLQRNENRDISEVIALGVPNPRTSNEVQYDQRLFNQSKGMDSGFAGGEDEIYNVYDQAWRGGKDMAQSIYRPSKNLDKDMYGDDLEARIKTNRFVPDKEFSGSDRRQRGREGPVQFEEDPFGLDKFLEEAKQHGGSKRPSDSSRPKEHEHEGKKRRKE [SNW1]	-0.328	52.3	50.8	0.482	0.202	-3.38
MALVASVRVPARVLLRAGARLPGAALGRTERAAGGGDGARRFGSQRVLVEPDAGAGVAVMKFKNPPVNSLSLEFLTELVISLEKLENDKSFRGVILTSDRPGVFSAGLDLTEMCGRSPAHYAGYWKAVQELWLRLYQSNLVLVSAINGACPAGGCLVALTCDYRILADNPRYCIGLNETQLGIIAPFWLKDTLENTIGHRAAERALQLGLLFPPAEALQVGIVDQVVPEEQVQSTALSAIAQWMAIPDHARQLTKAMMRKATASRLVTQRDADVQNFVSFISKDSIQKSLQMYLERLKEEKG [ECI1]	0.58	56.8	58.4	0.043	-0.579	-2.1
MALVHKLLRGTYFLRKFSKPTSALYPFLGIRFAEYSSSLQKPVASPGKASSQRKTEGDLQGDHQKEVALDITSSEEKPDVSFDKAIRDEAIYHFRLLKDEIVDHWRGPEGHPLHEVLLEQAKVVWQFRGKEDLDKWTVTSDKTIGGRSEVFLKMGKNNQSALLYGTLSSEAPQDGESTRSGYCAMISRIPRGAFERKMSYDWSQFNTLYLRVRGDGRPWMVNIKEDTDFFQRTNQMYSYFMFTRGGPYWQEVKIPFSKFFFSNRGRIRDVQHELPLDKISSIGFTLADKVDGPFFLEIDFIGVFTDPAHTEEFAYENSPELNPRLFK [NDUFAF1]	0.043	54.6	55.2	-0.0281	4.31	3.52
MAMAEGERTECAEPPRDEPPADGALKRAEELKTQANDYFKAKDYENAIKFYSQAIELNPSNAIYYGNRSLAYLRTECYGYALGDATRAIELDKKYIKGYYRRAASNMALGKFRAALRDYETVVKVKPHDKDAKMKYQECNKIVKQKAFERAIAGDEHKRSVVDSLDIESMTIEDEYSGPKLEDGKVTISFMKELMQWYKDQKKLHRKCAYQILVQVKEVLSKLSTLVETTLKETEKITVCGDTHGQFYDLLNIFELNGLPSETNPYIFNGDFVDRGSFSVEVILTLFGFKLLYPDHFHLLRGNHETDNMNQIYGFEGEVKAKYTAQMYELFSEVFEWLPLAQCINGKVLIMHGGLFSEDGVTLDDIRKIERNRQPPDSGPMCDLLWSDPQPQNGRSISKRGVSCQFGPDVTKAFLEENNLDYIIRSHEVKAEGYEVAHGGRCVTVFSAPNYCDQMGNKASYIHLQGSDLRPQFHQFTAVPHPNVKPMAYANTLLQLGMM [PPP5C]	0.0833	52.2	51.6	-0.207	-0.0521	-1.42
MAMDSSLQARLFPGLAIKIQRSNGLIHSANVRTVNLEKSCVSVEWAEGGATKGKEIDFDDVAAINPELLQLLPLHPKDNLPLQENVTIQKQKRRSVNSKIPAPKESLRSRSTRMSTVSELRITAQENDMEVELPAAANSRKQFSVPPAPTRPSCPAVAEIPLRMVSEEMEEQVHSIRGSSSANPVNSVRRKSCLVKEVEKMKNKREEKKAQNSEMRMKRAQEYDSSFPNWEFARMIKEFRATLECHPLTMTDPIEEHRICVCVRKRPLNKQELAKKEIDVISIPSKCLLLVHEPKLKVDLTKYLENQAFCFDFAFDETASNEVVYRFTARPLVQTIFEGGKATCFAYGQTGSGKTHTMGGDLSGKAQNASKGIYAMASRDVFLLKNQPCYRKLGLEVYVTFFEIYNGKLFDLLNKKAKLRVLEDGKQQVQVVGLQEHLVNSADDVIKMIDMGSACRTSGQTFANSNSSRSHACFQIILRAKGRMHGKFSLVDLAGNERGADTSSADRQTRMEGAEINKSLLALKECIRALGQNKAHTPFRESKLTQVLRDSFIGENSRTCMIATISPGISSCEYTLNTLRYADRVKELSPHSGPSGEQLIQMETEEMEACSNGALIPGNLSKEEEELSSQMSSFNEAMTQIRELEEKAMEELKEIIQQGPDWLELSEMTEQPDYDLETFVNKAESALAQQAKHFSALRDVIKALRLAMQLEEQASRQISSKKRPQ [KIF2C]	-0.0225	48.6	49.5	-0.0369	2.01	3.27
MAMMVFPREEKLSQDEIVLGTKAVIQGLETLRGEHRALLAPLVAPEAGEAEPGSQERCILLRRSLEAIELGLGEAQVILALSSHLGAVESEKQKLRAQVRRLVQENQWLREELAGTQQKLQRSEQAVAQLEEEKQHLLFMSQIRKLDEDASPNEEKGDVPKDTLDDLFPNEDEQSPAPSPGGGDVSGQHGGYEIPARLRTLHNLVIQYASQGRYEVAVPLCKQALEDLEKTSGHDHPDVATMLNILALVYRDQNKYKEAAHLLNDALAIREKTLGKDHPAVAATLNNLAVLYGKRGKYKEAEPLCKRALEIREKVLGKFHPDVAKQLSNLALLCQNQGKAEEVEYYYRRALEIYATRLGPDDPNVAKTKNNLASCYLKQGKYQDAETLYKEILTRAHEKEFGSVNGDNKPIWMHAEEREESKDKRRDSAPYGEYGSWYKACKVDSPTVNTTLRSLGALYRRQGKLEAAHTLEDCASRNRKQGLDPASQTKVVELLKDGSGRRGDRRSSRDMAGGAGPRSESDLEDVGPTAEWNGDGSGSLRRSGSFGKLRDALRRSSEMLVKKLQGGTPQEPPNPRMKRASSLNFLNKSVEEPTQPGGTGLSDSRTLSSSSMDLSRRSSLVG [KLC2]	0.526	50	50.1	0.0405	0.627	1.01
MAMNYNAKDEVDGGPPCAPGGTAKTRRPDNTAFKQQRLPAWQPILTAGTVLPIFFIIGLIFIPIGIGIFVTSNNIREIEIDYTGTEPSSPCNKCLSPDVTPCFCTINFTLEKSFEGNVFMYYGLSNFYQNHRRYVKSRDDSQLNGDSSALLNPSKECEPYRRNEDKPIAPCGAIANSMFNDTLELFLIGNDSYPIPIALKKKGIAWWTDKNVKFRNPPGGDNLEERFKGTTKPVNWLKPVYMLDSDPDNNGFINEDFIVWMRTAALPTFRKLYRLIERKSDLHPTLPAGRYSLNVTYNYPVHYFDGRKRMILSTISWMGGKNPFLGIAYIAVGSISFLLGVVLLVINHKYRNSSNTADITI [TMEM30A]	0.428	54.2	54.6	-0.17	-0.78	0.594
